# Residue numbers refer to the chain shown, from its start.
# B1: FJ2246MP07H09 (Fab, V domains shown)
# VH: EVQLVESGGDLVKPGGSLRLSCVASGFTFRDYAMTWVRQAPGKGLQWVSLINGSGGKTYYADAVKGRFTISRDNAKNTLYLQMNSLRAEDTAVYYCAVDRLTKTIRPQYYGLWSWGQGTLVTVSS
# VL: DIVMTQTPLSLSVSPGETASISCRSSQSLLYSIGYNYLDWYLQKPGQSPQGLIYLGSKRASGVPDRFSGSGSGTDFTLRISRVEANDTGVYYCMQGLQSPLTFGQGTKLEIKR
# B2: FJ2246MP07A10 (Fab, V domains shown)
# VH: B1 VH with I105V
# VL: B1 VL
# B3: FJ2246MP06E12 (Fab, V domains shown)
# VH: B1 VH with S54N, S114V
# VL: B1 VL
# B4: FJ2246MP05A03 (Fab, V domains shown)
# VH: B1 VH with F27L, T28P, T35A, N52S, S114V
# VL: B1 VL
# B5: FJ2246MP06D12 (Fab, V domains shown)
# VH: B1 VH with S54N, G55S, S114V
# VL: B1 VL
# B6: FJ2246MP06D01 (Fab, V domains shown)
# VH: B1 VH with T28P, I51V, G56S, S114V
# VL: B1 VL
# B7: FJ2246MP06H07 (Fab, V domains shown)
# VH: B1 VH with S54T, S114A
# VL: B1 VL
# B8: FJ2246MP07E01 (Fab, V domains shown)
# VH: B1 VH with N52S
# VL: B1 VL
# B9: FJ2246MP10A10 (Fab, V domains shown)
# VH: B1 VH with N52S, S114V
# VL: DIVMTQTPLSLSVSPGETASISCRSSQSLLYSIGYNYLDWYLQKPGQSPQGLIYLGSKRASGVPDRFSGSGSGTDFTLRISRVEAEDTGVYYCMQGLHSPLTFGQGTKLEIK
# B10: FJ2246MP10G04 (Fab, V domains shown)
# VH: B1 VH with N52S, S114V
# VL: B9 VL with H98Q, T102S
# B11: FJ2246MP10B07 (Fab, V domains shown)
# VH: B1 VH with N52S, S114V
# VL: B9 VL
# B12: FJ2246MP05F12 (Fab, V domains shown)
# VH: B1 VH with T28P, S114V
# VL: B1 VL
# B13: FJ2246MP10A09 (Fab, V domains shown)
# VH: B1 VH with N52S, S114V
# VL: B9 VL with T102S
# B14: FJ2246MP06D11 (Fab, V domains shown)
# VH: B1 VH with S114V
# VL: B1 VL
# B15: FJ2246MP07A09 (Fab, V domains shown)
# VH: B1 VH with L112M
# VL: B1 VL
# B16: FJ2246MP10E12 (Fab, V domains shown)
# VH: B1 VH with N52S, S114V
# VL: B9 VL with H98Q, T102S
# B17: FJ2246MP06E01 (Fab, V domains shown)
# VH: B1 VH with S114V
# VL: B1 VL
# B18: FJ2246MP06C01 (Fab, V domains shown)
# VH: B1 VH with S54N, S114V
# VL: B1 VL
# B19: FJ2246MP06C02 (Fab, V domains shown)
# VH: B1 VH with S54D, G56S, T58V, S114V
# VL: B1 VL
# B20: FJ2246MP10B12 (Fab, V domains shown)
# VH: B1 VH with N52S, S114V
# VL: B9 VL with S72N, T102S
# B21: FJ2246MP10H11 (Fab, V domains shown)
# VH: B1 VH with N52S, S114V
# VL: B9 VL with E86N, T102S
# B22: FJ2246MP10H03 (Fab, V domains shown)
# VH: B1 VH with N52S, S114V
# VL: B9 VL with H98R, T102S
# B23: FJ2246MP06G08 (Fab, V domains shown)
# VH: B1 VH with S54N, G56S, S114V
# VL: B1 VL
# B24: FJ2246MP06A09 (Fab, V domains shown)
# VH: B1 VH with S54N, G56S, S114V
# VL: B1 VL
# B25: FJ2246MP06F01 (Fab, V domains shown)
# VH: B1 VH with G56T, S114V
# VL: B1 VL
# B26: FJ2246MP10D01 (Fab, V domains shown)
# VH: B1 VH with N52S, S114V
# VL: B9 VL with E86D, H98Q, T102S
# B27: FJ2246MP10G07 (Fab, V domains shown)
# VH: B1 VH with N52S, S114V
# VL: B9 VL with E86D
# B28: FJ2246MP10B02 (Fab, V domains shown)
# VH: B1 VH with N52S, S114V
# VL: B9 VL with E86N
# B29: FJ2246MP06C10 (Fab, V domains shown)
# VH: B1 VH with S114V
# VL: B1 VL
# B30: FJ2246MP10F04 (Fab, V domains shown)
# VH: B1 VH with N52S, S114V
# VL: B9 VL with Q27K, E86D
# B31: FJ2246MP06H01 (Fab, V domains shown)
# VH: B1 VH with S54D, G55A, G56S, S114V
# VL: B1 VL
# Target: canine IL-4RA (construct not given) (canine)
# Test: SPR, IL-4RA immobilised, periplasmic Fab
Improvement over parental [fold],RU max [RU],koff [s⁻¹],Binder
5.4,509,5.23e-05,B1
3.4,614,8.18e-05,B2
2.9,127,9.66e-05,B3
2.3,400,0.000124,B4
2.7,154,0.000102,B5
3.6,323,7.72e-05,B6
3.7,568,7.5e-05,B7
2.1,423,0.000135,B8
2.2,369,0.000126,B9
2.1,251,0.000134,B10
2.2,252,0.000125,B11
3.2,208,8.83e-05,B12
3.1,437,8.91e-05,B13
2.1,146,0.000132,B14
4.2,252,6.73e-05,B15
2,251,0.000139,B16

Improvement over parental [fold],RU max [RU],koff [s⁻¹],Binder
2.4,152,0.000119,B17
2.3,160,0.000122,B18
2.2,272,0.000126,B19
3,304,9.41e-05,B20
2.8,261,9.9e-05,B21
2.2,243,0.000126,B22
3.1,199,9.01e-05,B23
2.6,152,0.000106,B24
2.5,199,0.000112,B25
2,283,0.000137,B26
2.5,372,0.000111,B27
2.2,202,0.000127,B28
2.1,135,0.000133,B29
3.1,292,9.16e-05,B30
2.6,225,0.000106,B31

# Reference: patent US20250188176A1
